Data reported in patent US20250215104A1 (WALDEN BIOSCIENCES, published 2025).
Where a chain is given by its changes, count along the chain named. Names may count otherwise.

T1: mouse cell surface uPAR (muPAR) (mouse, UniProt P35456 24-298)
T1 construct: whole, on cells; also called mouse uPAR
T1 sequence (looked up): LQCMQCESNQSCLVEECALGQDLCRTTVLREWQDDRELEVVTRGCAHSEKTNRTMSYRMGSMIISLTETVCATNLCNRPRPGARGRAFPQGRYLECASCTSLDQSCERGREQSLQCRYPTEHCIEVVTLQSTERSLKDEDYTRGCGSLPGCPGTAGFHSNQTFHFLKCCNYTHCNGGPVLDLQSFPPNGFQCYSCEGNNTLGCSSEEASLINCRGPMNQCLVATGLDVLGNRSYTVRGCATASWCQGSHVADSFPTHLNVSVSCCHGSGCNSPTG

B1: WAb0001 (antibody, V domains shown)
VH: QVQLVQSGAEVKKPGASVKVSCKASGYNIKDYYIHWVRQAPGQGLEWMGWISPDSGVTNYAQKFQGRVTMTRDTSTSTVYMELSSLRSEDTAVYYCARGYDVDWFVYWGQGTLVTVSS
VL: DIQMTQSPSSLSASVGDRVTITCSARQSVSYMYWYQQKPGKAPKLLIYRTSNLASGVPSRFSGSGSGTDFTLTISSLQPEDFATYYCQQYHSYPPTFGGGTKVEIK
notes: constant regions not tied to this antibody; also called WAb CD0001
B2: WAb0002 (antibody, V domains shown)
VH: B1 VH with D54S
VL: B1 VL
notes: constant regions not tied to this antibody; also called WAb CD0002
B3: WAb0009 (antibody, V domains shown)
VH: QVQLVQSGAEVKKPGASVKVSCKASGYTFTGHYVHWVRQAPGQGLEWMGWIDHENGNTIYDQKFQGRVTMTRDTSTSTVYMELSSLRSEDTAVYYCARGYDVDWFVYWGQGTLVTVSS
VL: B1 VL with Q27S
notes: constant regions not tied to this antibody; also called WAb CD0009
B4: WAb0003 (antibody, V domains shown)
VH: B1 VH with Y27F, S52D, D54E, S55N, V57S, N59I, A61D, V102I
VL: B1 VL with Q27S
notes: constant regions not tied to this antibody; also called WAb CD0003
B5: WAb0004 (antibody, V domains shown)
VH: B1 VH with Y27F, S52D, D54E, V57S, N59I, A61D, V102I
VL: B1 VL with Q27S
notes: constant regions not tied to this antibody; also called WAb CD0004
B6: WAb0005 (antibody, V domains shown)
VH: B3 VH with T30I, H32S
VL: B1 VL with Q27S, N52S
notes: constant regions not tied to this antibody; also called WAb CD0005
B7: WAb0006 (antibody, V domains shown)
VH: B3 VH with G31S, V34I, H35Q, Y100T
VL: B1 VL with Q27S
notes: light chain is WAL0921 (human kappa) with Q27S; also called WAb CD0006; original backup candidate
B8: WAb0007 (antibody, V domains shown)
VH: B3 VH with T30I, H32S
VL: B1 VL with Q27S, N52S
notes: also called WAb CD0007
B9: WAb0008 (antibody, V domains shown)
VH: B3 VH with G31S, V34I, H35Q, Y100T
VL: B1 VL with Q27S
notes: WAb0006 VL + mouse kappa constant; also called WAb CD0008; WAb008
B10: WAb0010 (antibody, V domains shown)
VH: B3 VH with H32N
VL: B1 VL with Q27S
notes: constant regions not tied to this antibody; also called WAb CD0010
B11: WAb0011 (antibody, V domains shown)
VH: B3 VH with H32S
VL: B1 VL with Q27S
notes: constant regions not tied to this antibody; also called WAb CD0011
B12: WAb0012 (antibody, V domains shown)
VH: B3 VH with H32Y, V34M
VL: B1 VL with V29I
notes: constant regions not tied to this antibody; also called WAb CD0012
B13: WAb0013 (antibody, V domains shown)
VH: B3 VH with G31N, H32Y, V34M, N57S, D61A
VL: B1 VL
notes: constant regions not tied to this antibody; also called WAb CD0013
B14: WAb0015 (antibody, V domains shown)
VH: B1 VH with N28T, I29F, K30T, D31N, V57G, N59K
VL: B1 VL with Q27S
notes: constant regions not tied to this antibody; also called WAb CD0015
B15: WAb0016 (antibody, V domains shown)
VH: B1 VH with N28T, I29F, K30T, D31N, D54S, V57G, N59K
VL: B1 VL with Q27S
notes: constant regions not tied to this antibody; also called WAb CD0016
B16: WAb0017 (antibody, V domains shown)
VH: B3 VH with T30S, G31A, H32Y, V34M
VL: B1 VL with S24R
notes: constant regions not tied to this antibody; also called WAb CD0017
B17: WAb0018 (antibody, V domains shown)
VH: B3 VH with G31N, H32Y, V34M
VL: B1 VL with R26S, Q27S, V29I
notes: constant regions not tied to this antibody; also called WAb CD0018
B18: WAb0019 (antibody, V domains shown)
VH: B3 VH with T30S, G31S, H32Y, V34M, D61A
VL: B1 VL with Q27S
notes: constant regions not tied to this antibody; also called WAb CD0019
B19: WAb0020 (antibody, V domains shown)
VH: B3 VH with G31S
VL: B1 VL with Q27S
notes: constant regions not tied to this antibody; also called WAb CD0020
B20: WAb0014 (antibody)
heavy: not shown
light: DIQMTQSPSSLSASVGDRVTITCSARQSVSYMYWYQQKPGKAPKLLIYRTSNLASGVPSRFSGSGSGTDFTLTISSLQPEDFATYYCQQYHSYPPTFGGGTKVEIKRTVAAPSVFIFPPSDEQLKSGTASVVCLLNNFYPREAKVQWKVDNALQSGNSQESVTEQDSKDSTYSLSSTLTLSKADYEKHKVYACEVTHQGLSSPVTKSFNRGEC
notes: also called original candidate; WAL0921 without P330G
B21: suPAR_DB05_D06 (scFv, V domains shown)
VH: B3 VH with T30S, G31S, H32Y, V34M, Y100D
VL: B1 VL with Q27S
notes: Screened as scFv
B22: suPAR_DB05_D08 (scFv, V domains shown)
VH: B1 VH with N28T, I29F, K30T, D31R, I34M, M48V, S52D, D54H, V57G, V102I
VL: B1 VL
notes: Screened as scFv
B23: suPAR_DB05_D09 (scFv, V domains shown)
VH: B3 VH with G31S, H32Y, V34M, H53P, D61A
VL: B1 VL with Q27S, N52S
notes: Screened as scFv
B24: suPAR_DB05_D10 (scFv, V domains shown)
VH: B3 VH with T30S, G31N, H32Y, V34I, Y100T
VL: B1 VL with S24R
notes: Screened as scFv
B25: suPAR_DB05_D11 (scFv, V domains shown)
VH: B3 VH with F29L, H32Y, V34M, H35Q, H53P, N57S
VL: B1 VL with R26S, Q27S
notes: Screened as scFv
B26: suPAR_DB05_D12 (scFv, V domains shown)
VH: B3 VH with Y27F, G31N, H32Y, V34F, H53P
VL: B1 VL with Q27S
notes: Screened as scFv
B27: suPAR_DB05_E01 (scFv, V domains shown)
VH: B3 VH with G31N, H32Y, V34M
VL: B1 VL with S24R, Q27S
notes: Screened as scFv
B28: suPAR_DB05_E02 (scFv, V domains shown)
VH: QVQLVQSGAEVKKPGASVKVSCKASGYTFTSYYMHWVRQAPGQGLEWMGWIDLNSGGAKYAQRFQGRVTMTRDTSTSTVYMELSSLRSEDTAVYYCARGYDVDWFVYWGQGTLVTVSS
VL: B1 VL with Q27S
notes: Screened as scFv
B29: suPAR_DB05_E03 (scFv, V domains shown)
VH: B3 VH with Y27H, F29L, T30N, G31S, H32Y, V34I, H53P, E54S, N55G
VL: B1 VL with Q27S
notes: Screened as scFv
B30: suPAR_DB05_E04 (scFv, V domains shown)
VH: B3 VH with T28S, G31S, H32N, V34M
VL: B1 VL with Q27S
notes: Screened as scFv
B31: suPAR_DB05_E05 (scFv, V domains shown)
VH: B3 VH with T28N, G31N, H32Y, V34M, E54S, N57S
VL: B1 VL with Q27S
notes: Screened as scFv
B32: WAb0006 (antibody, human IgG1, V domains shown)
VH: B3 VH with G31S, V34I, H35Q, Y100T
VL: DIQMTQSPSSLSASVGDRVTITCSARSSVSYMYWYQQKPGKAPKLLIYRTSNLASGVPSRFSGSGSGTDFTLTISSLQPEDFATYYCQQYHSYPPTFGGGTKVEIKR
notes: The listing names these entries 'WAb CD0006'; Fc region identical to WAb0014 (human IgG1, L235A, L236A); human kappa; also called original backup candidate
B33: WAb0008 (antibody, IgG2a, V domains shown)
VH: B3 VH with G31S, V34I, H35Q, Y100T
VL: B1 VL with Q27S
notes: The listing names these entries 'WAb CD0008'; WAb0006 VH + mIgG2a Fc with L235A and L236A; WAb0006 VL + mouse kappa constant; also called WAb008; mouse IgG2a version of WAb0006

Biological target: T2, human soluble urokinase plasminogen activator receptor (suPAR) (human, UniProt Q03405 23-303, limits assumed)
T2 construct: also called hsuPAR; human suPAR
Experiment: dissociation rate (kdis) on human suPAR; method not stated
T2 sequence (Q03405 23-303 limits assumed): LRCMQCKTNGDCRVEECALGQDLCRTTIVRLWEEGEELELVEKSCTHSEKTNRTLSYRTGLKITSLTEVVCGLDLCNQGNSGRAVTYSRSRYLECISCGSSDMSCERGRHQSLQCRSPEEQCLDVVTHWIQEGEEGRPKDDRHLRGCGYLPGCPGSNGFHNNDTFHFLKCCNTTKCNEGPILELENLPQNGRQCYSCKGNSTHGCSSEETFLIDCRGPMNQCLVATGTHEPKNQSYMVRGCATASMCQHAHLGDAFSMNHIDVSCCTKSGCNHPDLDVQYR

| Binder | koff [s⁻¹] |
| --- | --- |
| B1 | 3.04e-07 |
| B2 | 8.37e-05 |
| B3 | 3.47e-07 |
| B4 | 3.57e-07 |
| B5 | 2.61e-07 |
| B6 | 3.97e-07 |
| B7 | 3.39e-07 |
| B8 | 2.76e-07 |
| B9 | 2.83e-07 |
| B10 | 3.89e-07 |
| B11 | 2.36e-07 |
| B12 | 2.93e-07 |
| B13 | 2.44e-07 |
| B14 | 2.97e-07 |
| B15 | 0.000213 |
| B16 | 3.63e-07 |
| B17 | 2.6e-07 |
| B18 | 3.43e-07 |
| B19 | 3.42e-07 |
| B20 | 2.57e-07 |

Biological target: T3, cynomolgus soluble urokinase plasminogen activator receptor (suPAR) (cynomolgus, UniProt Q9GK78 23-303, limits assumed)
T3 construct: Column head says only 'cynomologus'; also called cynomolgus suPAR; cynomolgus uPAR
Experiment: BLI (Octet) off-rate screen of scFv clones

T3 sequence (Q9GK78 23-303 limits assumed): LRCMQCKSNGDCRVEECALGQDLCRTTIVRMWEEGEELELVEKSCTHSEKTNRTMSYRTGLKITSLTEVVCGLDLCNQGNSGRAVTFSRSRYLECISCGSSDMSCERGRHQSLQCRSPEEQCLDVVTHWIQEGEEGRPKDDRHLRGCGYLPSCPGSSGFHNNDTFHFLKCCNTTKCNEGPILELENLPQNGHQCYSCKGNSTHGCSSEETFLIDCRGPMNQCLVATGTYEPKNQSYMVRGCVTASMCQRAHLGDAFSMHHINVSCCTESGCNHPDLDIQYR

| Binder | koff [s⁻¹] |
| --- | --- |
| B21 | 0.000375 |
| B22 | 7.69e-05 |
| B23 | 0.000666 |
| B24 | 0.000851 |
| B25 | 0.000775 |
| B26 | 0.000352 |
| B27 | 0.000767 |
| B28 | 0.000824 |
| B29 | 0.000265 |
| B30 | 0.000354 |
| B31 | 0.000298 |

Biological target: T4, human soluble urokinase plasminogen activator receptor (suPAR) (human, UniProt Q03405 23-303, limits assumed)
T4 construct: Column head says only 'human'; also called hsuPAR; human suPAR
Experiment: BLI (Octet) off-rate screen of scFv clones
T4 sequence (Q03405 23-303 limits assumed): as the sequence (Q03405 23-303 limits assumed) above

| Binder | koff [s⁻¹] |
| --- | --- |
| B21 | 0.00345 |
| B22 | 0.00471 |
| B23 | 0.00384 |
| B24 | 0.006 |
| B25 | 0.00555 |
| B26 | 0.00477 |
| B27 | 0.00208 |
| B28 | 0.00517 |
| B29 | 0.00535 |
| B30 | 0.00544 |
| B31 | 0.00165 |

Biological target: T1, mouse cell surface uPAR (muPAR)
Experiment: flow cytometry on undifferentiated mouse podocytes, FITC secondary antibody
Protocol: Gene expression of mouse uPAR in undifferentiated mouse podocyte cells was undertaken using commercial gene specific qPCR probes for mouse and human uPAR and normalized to 18S housekeeping gene expression using manufacturers RT-qPCR protocol (Thermofisher). Separately, mouse podocytes were incubated with 100 μg/mL concentration of anti-hsuPAR and Proteintech positive control anti-mouse uPAR antibodies at 4° C. for 1 hr. After 2 cycles of wash to remove any unbound antibody, cells were incubated with 10 μg/mL of a goat-anti-human-FITC or goat-anti-mouse-FITC or goat-anti-rabbit-FITC conjugated secondary antibody for 1 hr at 4° C. After washing any unbound secondary antibody, cell suspensions for each sample was gated for single cells and population mean fluorescence intensity was recorded and analyzed on a Luminex Flowsight flow cytometer. Mean fluorescence intensity for test samples was plotted in GraphPad Prism software and compared to positive control sample data.

| Binder | binding result |
| --- | --- |
| B32 | no binding (tested: 100 µg/mL) |
| B33 | no binding (tested: 100 µg/mL) |
